Measurements as given in patent US20250051435A1 (INVETX, published 2025).
Each block holds one binder with its values, some of them ahead of it.

Legend:
[1] = biological target: T1, feline IL-5 (Kingfisher Biotech; RP1152F) (feline, UniProt O77515 20-134); assay: SPR Biacore T200, IgG captured on goat anti-feline IgG CM5 chip, feline IL-5 as analyte
T1 construct: Bought recombinant protein; also called fIL-5; fIL5
T1 sequence (looked up): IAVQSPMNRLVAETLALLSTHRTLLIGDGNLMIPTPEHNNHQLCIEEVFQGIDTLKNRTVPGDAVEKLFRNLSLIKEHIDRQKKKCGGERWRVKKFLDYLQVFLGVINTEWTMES
From the text: (§1) MABS, 11:239-264). These post-translational modifications can be particularly problematic when they reside in the CDRs. […] DNA constructs were synthesized (GeneArt) encoding the MtxB clone with substitutions to eliminate the potential sequence liabilities. For the NG site in LCDR3, the Asn (position 106) was substituted with either a Gln or a Ser and for the Met in HCDR3 (position 115), a Len was substituted. The DNA constructs with the light chain variants were fused to the feline kappa constant domain. These DNA constructs were subcloned into the pcDNA3.4 expression vector (ThermoFisher) and expressed with the ExpiCHO system (ThermoFisher). The antibodies were purified with mAbSelect SuRe chromatography (Cytiva) and buffer exchanged into 20 mM sodium acetate, 136 mM sodium chloride, pH 5.5. The variants were tested in an SPR experiment using a Biacore T200 instrument to measure their affinity to feline IL-5 (Kingfisher Biotech; RP1152F). Goat anti-feline IgG was immobilized onto a Series S CM5 sensor chip (Cytiva) and the original MtxB clone and the variants containing the amino acid substitutions were captured on the chip at 5 μg/ml.
DNA constructs (GeneArt) were generated for the two heavy chain variants with the feline IgG1a constant domain along with the three light chain variants with the feline kappa constant domain were all subcloned into pcDNA 3.4 (ThermnoFisher Scientific). Each combination of the heavy and light chain variants was transfected into ExpiCHO cells to generate conditioned medium. The feline IgGs were purified using MabSelect SuRe chromatography and buffer exchanged into 20 mM sodium acetate, 136 mM sodium chloride, pH 5.5. The binding affinities of the different feline IgGs to feline IL-5 was determined using the same SPR method described in the removing potential sequence liabilities in LCDR3 and HCDR3 section and are shown below in Table 7.

[2] = biological target: T1, feline IL-5 (Kingfisher Biotech; …); assay: Biacore, antibody pre-incubated with 50 nM IL-5 at 1:1, over captured biotinylated IL-5Rα-Fc-AviTag (competitor m3)
Protocol: (§2) MtxA antibody and MtxB antibody had the highest affinity to feline IL-5 as determined by surface plasmon resonance (SPR) using a Biacore T200 instrument. Goat anti-feline IgG-Fc fragment specific (Jackson ImmunoResearch; 102-005-008) at 30 μg/ml in 10 mM acetate, pH 5.0 was immobilized onto CM5 sensor chip (Cytiva; 29104988) with NHS coupling at 10 μL/min for 420 seconds and then other sites blocked with ethanolamine at 10 μL/min for 420 seconds. The anti-feline IL-5 antibodies were captured at 2 μg/ml onto the anti-feline IgG CM5 chip for 60 sec at 10 μl/min. […] The kinetics of the feline IL-5 binding to the antibodies is shown below in FIG. 2. In addition, an IL-5 receptor blocking assay was completed by capturing biotinylated receptors on a Series S CAP chip and Biotin CAPture reagent (Cytiva). For this assay, a fusion protein was generated containing the extracellular domain of feline IL-5Rα (XP_011278466.1) linked to a 2X-Gly-Gly-Gly-Ser (SEQ ID NO:89) linker-linked to the human IgG1 Fc linked to the AviTag sequence (FIG. 1B, SEQ ID NO:2) and subcloned into the pcDNA3.4 mammalian expression vector. This construct was expressed in CHO-S cells and purified with protein A chromatography followed by a polishing chromatography step with SEC. The purified recombinant protein was biotinylated in vitro using the BirA biotin ligase. Antibodies were titrated in running buffer (1×PBSP+, Cytiva) and pre-incubated with 50 nM IL-5 (Kingfisher) at multiple molar ratios. Binding was assessed by injecting these samples over the captured receptor for 180 s. The Rmax was used to calculate the inhibition percent by dividing the Rmax of the pre-mixed samples by an average of the IL-5-only Rmax samples that were collected throughout the assay. The ability of each antibody to block binding of feline IL5 was measured (Table 2).

[3] = biological target: T1, feline IL-5 (Kingfisher Biotech; …); assay: SPR Biacore T200, IgG captured on goat anti-feline IgG-Fc CM5 chip, feline IL-5 as analyte
Protocol: as §2

[4] = biological target: T1, feline IL-5 (Kingfisher Biotech; …); assay: high-throughput SPR (Carterra LSA), antibody coupled to HC-30M chip, feline IL-5 as analyte
Protocol: The chip surface was first activated by flowing a freshly prepared 1:1:1 activation mix of 100 mM MES pH 5.5, 100 mM S-NHS, and 400 mM EDC for seven minutes. Antibodies diluted to 10 μg/mL in 10 mM sodium acetate, pH 4.25 buffer, 0.01% Tween were coupled to the chip surface for 10 min using the instrument 96 Multi Flow Channel printhead. The chip surface was quenched by flowing 1 M Ethanolamine for seven minutes, followed by two wash steps of 15 seconds each in 25 mM MES pH 5.5 buffer. Feline IL-5 (Kingfisher Biotech; RP1152F) was used at the following concentrations: 1000, 333.3, 111.1, 37.0, 12.3, 4.1, 1.4, 0.45, and 0.15 nM.

[5] = biological target: T1, feline IL-5 (Kingfisher Biotech; …); assay: SPR Biacore T200, IgG captured on goat anti-feline IgG CM5 chip, feline IL-5 as analyte; remark: listed apart in the source
From the text: as §1, with “Asparagine deamidation for asparagine residues and oxidation at methionine residues can negatively impact the potency and the stability of an antibody (Xu et al., 2019. MABS,” for “MABS,”

B2: murine anti-feline IL-5 antibody clone 154 (antibody, V domains shown)
VH: EVQLVESGGDLVKPGGSLKLSCAASGFTFSNYAMSWVRQTPDKRLEWVATIGSGGHYTYHPDSVKGRFSISRDNAKNTLSLQMSSLKSEDTAMYYCTRETDGYDGMDYWGQGTSVTVSS
VL: DIVMTQSPATLSVTPGDRVSLSCRASQSISDYLYWYQQKSHESPRLLIKYASQSISGIPARFSGSGSGSDFTLSINSVEPEDVGVYYCQNGHSFPYTFGGGTKLEIK
notes: also called murine antibody 154
- Kd [4]: 141 pM

B3: MtxA antibody (felinized clone 154) (antibody, IgG1a, V domains shown)
VH: DVQLVESGGDLVKPGGSLRLTCVGSGFTFSNYAMSWVRQAPGEGLQWVATIGSGGHYTYHPDSVKGRFTISRDNAKNTLYLQMNSLQTEDTASYYCTRETDGYDGMDYWGQGTLVTVSS
VL: EIQMTQSPSSLSASVGDRVTITCRASQSISDYLYWYQQKPGKAPKLLIYYASQSISGVPSRFSGSGSGTDFTLTISSLQPEDFATYYCQNGHSFPYTFGPGTKLEIK
notes: Feline IgG1a (GenBank BAA32229.1) / feline kappa (GenBank ATI97438.1); also called Matrix clone A
- Kd [1]: 273 pM
- koff [1]: 6.65e-05 s⁻¹
- kon [1]: 242000 M⁻¹ s⁻¹
- % blocking 1:1 [2]: 92.5%
- Kd [3]: 178 pM
- koff [3]: 1.49e-05 s⁻¹
- kon [3]: 87100 M⁻¹ s⁻¹

The next lines start with the values.

- Kd [1]: 91.4 pM
- koff [1]: 3.38e-05 s⁻¹
- kon [1]: 369000 M⁻¹ s⁻¹
- % blocking 1:1 [2]: 98.2%
- Kd [3]: 129 pM
- koff [3]: 3.56e-05 s⁻¹
- kon [3]: 276000 M⁻¹ s⁻¹
B1: Chimeric 154 (clone 154 variable domains with feline IgG1a and feline kappa constant domains) (antibody, V domains shown)
VH: B2 VH
VL: B2 VL
notes: also called 154 chimera

- % blocking 1:1 [2]: 74.2%
- Kd [3]: 5020 pM
- koff [3]: 0.000548 s⁻¹
- kon [3]: 141000 M⁻¹ s⁻¹
- Kd [5]: 5900 pM
- koff [5]: 0.00053 s⁻¹
- kon [5]: 90000 M⁻¹ s⁻¹
B4: MtxB antibody (felinized clone 154) (antibody, IgG1a, V domains shown)
VH: B3 VH
VL: DIVMTQTPLSLSVTPGEPASISCRASQSISDYLYWYLQKPGQSPRRLIYYASQSISGVPDRFSGSGSGTDFTLRISRVEADDVGVYYCQNGHSFPYTFGPGTKLEIK
notes: Feline IgG1a (GenBank BAA32229.1) / feline kappa (GenBank ATI97438.1); also called MatrixB; Matrix B
